In paper PMC8142252, “The Arabidopsis thaliana chloroplast division protein FtsZ1 counterbalances FtsZ2 filament stability in vitro” (The Journal of Biological Chemistry, 2021):

Target: T1, AtFtsZ2 (Arabidopsis thaliana FtsZ2-1, full-length mature protein lacking its transit peptide) (Arabidopsis thaliana, UniProt O82533 49-478)
T1 construct: Purified AtFtsZ2 runs as a doublet on SDS-PAGE; also called AtFtsZ2-1; source: E. coli DE3 Rosetta cells overexpressing the E. coli ftsQAZ operon, purified (Ni-NTA); not shown: His6, C-terminal, kept
T1 sequence (looked up): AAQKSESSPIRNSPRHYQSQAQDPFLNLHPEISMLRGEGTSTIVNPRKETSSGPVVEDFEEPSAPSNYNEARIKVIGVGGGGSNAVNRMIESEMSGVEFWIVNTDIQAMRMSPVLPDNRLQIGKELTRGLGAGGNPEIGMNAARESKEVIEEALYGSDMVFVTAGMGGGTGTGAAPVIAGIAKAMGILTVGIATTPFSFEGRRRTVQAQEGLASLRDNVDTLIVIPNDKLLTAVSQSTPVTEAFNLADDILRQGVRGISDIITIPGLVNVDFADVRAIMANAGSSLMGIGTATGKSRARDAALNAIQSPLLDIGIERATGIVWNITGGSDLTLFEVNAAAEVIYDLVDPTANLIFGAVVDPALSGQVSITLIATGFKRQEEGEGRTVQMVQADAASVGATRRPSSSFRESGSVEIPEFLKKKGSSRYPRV
Assay: 90° light scattering; 5 μM AtFtsZ2 (or AtFtsZ2core) mixed with AtFtsZ1, AtFtsZ1 D275A (or AtFtsZ1core) at various ratios before start, HMK buffer, room temperature, started by 10 μM or 500 μM GTP
Conditions: both partners purified

B1: AtFtsZ1 (Arabidopsis thaliana FtsZ1-1, full-length mature protein lacking its transit peptide) (natural protein, UniProt Q42545 58-433, looked up)
chain: RSKSMRLRCSFSPMESARIKVIGVGGGGNNAVNRMISSGLQSVDFYAINTDSQALLQSSAENPLQIGELLTRGLGTGGNPLLGEQAAEESKDAIANALKGSDLVFITAGMGGGTGSGAAPVVAQISKDAGYLTVGVVTYPFSFEGRKRSLQALEAIEKLQKNVDTLIVIPNDRLLDIADEQTPLQDAFLLADDVLRQGVQGISDIITIPGLVNVDFADVKAVMKDSGTAMLGVGVSSSKNRAEEAAEQATLAPLIGSSIQSATGVVYNITGGKDITLQEVNRVSQVVTSLADPSANIIFGAVVDDRYTGEIHVTIIATGFSQSFQKTLLTDPRAAKLLDKMGSSGQQENKGMSLPHQKQSPSTISTKSSSPRRLFF
notes: also called AtFtsZ1-1; source: E. coli DE3 Rosetta cells overexpressing the E. coli ftsQAZ operon, purified (Ni-NTA); not shown: His6, C-terminal, kept
B1: binds.
